Results reported in the supplement of paper PMC7877785.
± gives the uncertainty stated by the source.

Assay: self-splicing fitness, log relative to wild type (ln ratio); higher = more splicing; Tetrahymena group I intron in knt gene, E. coli kanamycin selection, DiMSum; sequences stand for … in CUCUCU…GGAGGGAAAAGUUAUCAGGCAUGCACCUGGUAGCUAGUCUUUAAACCAAUAGAUUGCAUCGGUUUAAAAGGCAAGACCGUCAAAUUGCGGGAAAGGGGUCAACAGCCGUUCAGUACCAAGUCUCAGGGGAAACUUUGAGAUGGCCUUGCAAAGGGUAUGGUAAUAAGCUGACGGACAUGGUCCUAACCACGCAGCCAAGUCCUAAGUCAACAGAUCUUCUGUUGAUAUGGAUGCAGUUCACAGACUAAAUGUCGGUCGGGGAAGAUGUAUUCUUCUCAUAAGAUAUAGUCGGACCUCUCCUUAAUGGGAGCUAGCGGAUGAAGUGAUGCAACACUGGAGCCGCUGGGAACUAAUUUGUAUGCGAAAGUAUAUUGAUUAGUUUUGGAGUACUCGUGGUCG
Procedure, shortened: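 Pooled colonies went to amplicon sequencing on an Illumina HiSeq 2500 after six replicate transformations. The plates were LB agar with 100 μg/mL carbenicillin, 50 μM IPTG and 0.2% rhamnose, with or without 25 μg/mL kanamycin, incubated overnight at 37°C or 30°C. The E. coli BL21(DE3) library had all eight P1ex-region intron nucleotides randomised, the intron placed in the knt kanamycin-resistance gene on pET-22b(+). DiMSum fitness is the error-weighted combination of replicate fold changes, kanamycin against none, normalised to wild type.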

Row | Sequence | self-splicing fitness (ln) (30 °C) | self-splicing fitness (ln) (37 °C)
1 | CUGCAGCAAUAUUACGAACU | -2.75 ± 0.3 | -2.34 ± 0.33
2 | UGGGAGCAAUAUUACGGCGG | -2.86 ± 0.4 | -1.23 ± 0.46
3 | AAGGAGCAAUAUUACGUGCA | -3.03 ± 0.18 | -1.37 ± 0.17
4 | GUCAAGCAAUAUUACGUCUA | -1.94 ± 0.1 | -0.679 ± 0.079
5 | CUUCAGCAAUAUUACGAUGG | -2.3 ± 0.11 | -1.38 ± 0.15
6 | GGGCAGCAAUAUUACGUAAU | -0.917 ± 0.063 | 0.209 ± 0.085
7 | GCACAGCAAUAUUACGAGUU | -1.81 ± 0.057 | -0.499 ± 0.072
8 | CAGGAGCAAUAUUACGGAUA | – | -0.862 ± 0.41
9 | UAAGAGCAAUAUUACGCCGG | -2.97 ± 0.31 | -1.72 ± 0.26
10 | GGAAAGCAAUAUUACGUUGG | -3.55 ± 0.2 | -2.83 ± 0.34
11 | CAGCAGCAAUAUUACGAUGG | -0.264 ± 0.07 | 0.177 ± 0.092
12 | UUUUAGCAAUAUUACGGACC | -2.44 ± 0.4 | -0.175 ± 0.33
13 | CGAGAGCAAUAUUACGCGGU | -3.23 ± 0.23 | -2.4 ± 0.24
14 | CGUGAGCAAUAUUACGUCUC | -3.22 ± 0.21 | -2.29 ± 0.19
15 | UCCAAGCAAUAUUACGUCAU | -3.09 ± 0.14 | -1.39 ± 0.11
16 | ACAGAGCAAUAUUACGCGUG | -1.81 ± 0.081 | -1.87 ± 0.1
17 | GUUGAGCAAUAUUACGCGUA | -3.48 ± 0.47 | -0.589 ± 0.18
18 | ACUCAGCAAUAUUACGAACC | -0.758 ± 0.097 | -0.326 ± 0.1
19 | CUAUAGCAAUAUUACGCCCG | -0.353 ± 0.24 | -0.0929 ± 0.34
20 | AACUAGCAAUAUUACGGCGG | -1.21 ± 0.087 | -0.787 ± 0.11
21 | GGUCAGCAAUAUUACGCGAU | -2.41 ± 0.18 | –
22 | ACGGAGCAAUAUUACGCGUG | -2.24 ± 0.12 | -0.943 ± 0.11
23 | GGCUAGCAAUAUUACGUGUA | -0.9 ± 0.093 | -0.236 ± 0.095
24 | GACAAGCAAUAUUACGUGUU | -3.4 ± 0.12 | -2.21 ± 0.12
25 | GUUCAGCAAUAUUACGCCUG | -1.97 ± 0.2 | -0.936 ± 0.22

Row | Sequence | self-splicing fitness (ln) (30 °C) | self-splicing fitness (ln) (37 °C)
26 | CUCCAGCAAUAUUACGCCUG | -3.25 ± 0.21 | -2.71 ± 0.27
27 | ACAGAGCAAUAUUACGCCUG | – | -1.94 ± 0.46
28 | CAUCAGCAAUAUUACGGUCG | 0.0182 ± 0.075 | 0.236 ± 0.093
29 | UAGUAGCAAUAUUACGGUGG | -3.44 ± 0.27 | -2.09 ± 0.2
30 | GGCUAGCAAUAUUACGAUCC | 0.227 ± 0.47 | –
31 | UACCAGCAAUAUUACGGCCG | 0.00307 ± 0.099 | -0.366 ± 0.12
32 | UUCCAGCAAUAUUACGAUGG | -2.91 ± 0.24 | –
33 | CGCCAGCAAUAUUACGUCUC | -4.51 ± 0.23 | -2.45 ± 0.16
34 | GAGUAGCAAUAUUACGCCUA | -1.21 ± 0.1 | -0.374 ± 0.11
35 | AUGCAGCAAUAUUACGCAAG | -1.92 ± 0.091 | -1.72 ± 0.096
36 | ACGAAGCAAUAUUACGGUAC | -5.02 ± 0.38 | -2.24 ± 0.17
37 | GGCGAGCAAUAUUACGUGUA | -2.41 ± 0.15 | -1.16 ± 0.14
38 | AGGGAGCAAUAUUACGUUUG | -3.56 ± 0.39 | -2.66 ± 0.35
39 | UCCUAGCAAUAUUACGUGAC | -3.85 ± 0.2 | -3.03 ± 0.21
40 | GAGCAGCAAUAUUACGAUAG | -3.7 ± 0.29 | -3.14 ± 0.24
41 | UUUUAGCAAUAUUACGGGGG | -3.07 ± 0.41 | -2.25 ± 0.31
42 | GGCCAGCAAUAUUACGGAAU | -0.615 ± 0.057 | -0.0748 ± 0.068
43 | AAUCAGCAAUAUUACGGGUA | -0.368 ± 0.071 | 0.17 ± 0.081
44 | GAUGAGCAAUAUUACGAACU | -0.431 ± 0.31 | -0.239 ± 0.31
45 | ACCGAGCAAUAUUACGGACU | -0.27 ± 0.073 | 0.614 ± 0.1
46 | GGCGAGCAAUAUUACGCCAA | – | -2.45 ± 0.49
47 | GGUAAGCAAUAUUACGAAUC | -0.515 ± 0.13 | -0.339 ± 0.16
48 | UCUAAGCAAUAUUACGUCCC | – | -0.386 ± 0.41
49 | ACGAAGCAAUAUUACGCGUU | -4.06 ± 0.33 | -2 ± 0.21
50 | CCCCAGCAAUAUUACGCGAC | -3.37 ± 0.21 | -2.49 ± 0.25
